# From US20230203117A1
# Target: IL-10Rβ on human primary monocytes and CD8 T cells (human) (UniProt Q08334)
# Assay: cell-based or functional assay
# Sequence of IL-10Rβ on human primary monocytes and CD8 T cells (human) (Q08334 20-325): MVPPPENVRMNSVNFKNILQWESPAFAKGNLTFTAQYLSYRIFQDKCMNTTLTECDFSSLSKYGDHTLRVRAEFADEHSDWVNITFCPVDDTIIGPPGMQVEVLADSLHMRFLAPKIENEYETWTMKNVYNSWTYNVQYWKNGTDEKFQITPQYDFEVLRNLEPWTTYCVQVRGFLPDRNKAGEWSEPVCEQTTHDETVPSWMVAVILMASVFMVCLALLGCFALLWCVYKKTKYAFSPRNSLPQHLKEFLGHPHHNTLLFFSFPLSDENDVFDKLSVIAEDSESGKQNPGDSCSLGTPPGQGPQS
# Sequence of wild type IL-10 dimer (WTD) (P22301 other isoform, or with tags, fused parts or gaps): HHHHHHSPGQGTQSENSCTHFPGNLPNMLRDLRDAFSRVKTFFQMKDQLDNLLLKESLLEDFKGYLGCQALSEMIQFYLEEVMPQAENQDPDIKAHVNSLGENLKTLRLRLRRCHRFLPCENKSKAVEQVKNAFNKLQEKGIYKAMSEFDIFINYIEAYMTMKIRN
Substance,"granzyme B production in CD8 T cells, flow cytometry",reduction of HLA-DR surface levels in human primary monocytes,"pSTAT1 and pSTAT3 in human CD8 T cells, amplitude of activation (% of the dimeric molecules)","pSTAT1 and pSTAT3 in human monocytes, amplitude of activation (percentage of WTD)"
wild type IL-10 dimer (WTD) (from UniProt P22301 19-178) (ligand),2.5 fold,50%,,
"wild type monomeric IL-10 (WTM), recombinant (ligand)",,20%,< 25,< 50
